The results in this text go back to US20250361312A1.

In this assay the target is mouse OX40 receptor, cell-expressed (DO11.10-mOX40) (mouse) (UniProt P47741). Nature of the assay: cell-based or functional assay.
mouse OX40 receptor, cell-expressed (DO11.10-mOX40) (mouse), sequence (P47741 20-272): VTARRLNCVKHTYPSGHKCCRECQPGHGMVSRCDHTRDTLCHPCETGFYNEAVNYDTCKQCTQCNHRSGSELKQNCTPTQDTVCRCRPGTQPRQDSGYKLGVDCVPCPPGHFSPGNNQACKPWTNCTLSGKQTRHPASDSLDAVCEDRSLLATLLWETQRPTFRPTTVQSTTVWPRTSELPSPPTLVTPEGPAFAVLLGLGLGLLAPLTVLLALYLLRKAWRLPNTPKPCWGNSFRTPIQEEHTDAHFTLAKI

B1: FS20m-232-91AA/E2A (bispecific antibody, part only; not given: E2A Fab and upper Fc, human IgG1, part only)
heavy, part: GQPREPQVYTLPPSRDELFDPMYYYNQVSLTCLVKGFYPSDIAVEWESNGEPLWDYKTTPPVLDSDGSFFLYSKLTVWRDRWEDGNVFSCSVMHEALHNHYTQKSLSLSPGK
For the molecule B1, the EC50 of IL-2 release, HPAC cells present, + a-hFc is 289 pM; the Max response, HPAC cells present, + a-hFc came out at 18800 mIL-2 pg/ml; the Max response, crosslinked by EphA2 on HPAC cells, no crosslinking agent is 11000 mIL-2 pg/ml.

B2: FS20m-232-91AA/C9B7W (bispecific antibody, part only; not given: C9B7W Fab and upper Fc, human IgG1, part only)
heavy, part: B1 heavy, part
B2 yielded an EC50 of IL-2 release, no added crosslinker (LAG3 co-expressed on T cells) of 176 pM and a Max response, no added crosslinker (LAG3 co-expressed on T cells) of 9670 mIL-2 pg/ml.

B3: FS20m-232-91AA/R84 (bispecific antibody, part only; not given: R84 Fab and upper Fc, human IgG1, part only)
heavy, part: B1 heavy, part
B3 returned an EC50 of IL-2 release, Xlink (VEGF) of 144 pM; an EC50 of IL-2 release, no added crosslinker of 29900 pM; a Max response, Xlink (VEGF) of 15100 mIL-2 pg/ml; a Max response, no added crosslinker of 16700 mIL-2 pg/ml.

B4: G1/OX86 (antibody, from another filing, human IgG1, V domains shown)
VH: QVQLKESGPGLVQPSQTLSLTCTVSGFSLTGYNLHWVRQPPGKGLEWMGRMRYDGDIYYNSVLKSRLSISRDTSKNQVFLKMNSLQTDDTAIYYCTRDGRGDSFDYWGQGVMVTVSS
VL: DIVMTQGALPNPVPSGESASITCRSSQSLVYKDGQTYLNWFLQRPGQSPQLLTYWMSTRASGVSDRFSGSGSGTYFTLKISRVRAEDAGVYYCQQVREYPFTFGSGTKLEIKR
As to B4, the EC50 of IL-2 release, HPAC cells present, + a-hFc worked out at 811 pM; the EC50 of IL-2 release, Xlink (anti-hFc) is 15600 pM; the Max response, HPAC cells present, + a-hFc amounted to 17900 mIL-2 pg/ml; the Max response, Xlink (anti-hFc) was 16200 mIL-2 pg/ml.
